Reference: patent CN114395035A (JIANGSU MICKEE MEDICAL TECH CO LTD; INST OF MICROBIOLOGY OF …, dated 2022)

B1: IMCAS-123抗体 (全抗IgG1) (antibody, V domains shown)
VH: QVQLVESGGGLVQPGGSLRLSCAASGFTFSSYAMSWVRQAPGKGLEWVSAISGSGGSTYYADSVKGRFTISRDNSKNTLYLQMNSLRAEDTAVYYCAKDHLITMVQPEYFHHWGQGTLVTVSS
VL: DIQMTQSPSSVSASVGDSVTITCRASQGISRWLAWYQQRPGKAPKLLIYAAGNLETGVPSRFSGSGSGTDFTLTISDLQAEDFATYYCQQADSFPLTFGGGTKVDIKR
notes: also called T1线抗体
B2: IMCAS-364抗体 (全抗IgG1) (antibody, V domains shown)
VH: QVQLQESGGGVVQPGRSLRLSCAASGFTFSRYGMHWVRQAPGKGLEWVAVIWYDGSNKYYADSVKGRFTISRDNSKNTLYLQMNSLRADDTAVYYCAKQEGTYCSGGSCYSGLDYWGQGTLVTVSS
VL: not shown
notes: also called 金标抗体 (胶体金标记)

Molecular target: SARS-CoV-2 Prototype RBD蛋白 (野生型新型冠状病毒刺突蛋白受体结合域段RBD蛋白) (SARS-CoV-2, UniProt P0DTC2 319-541)
Assay: SPR (Biacore 8K)

Binder | Kd [nM]
B1 | 0.18
B2 | 1.04
